Assay results as given in patent US20250206828A1, “ANTI-ADENOSINE RECEPTOR (A2aR) ANTIBODIES AND THE USE THEREOF” (Adept Therapeutics Inc., priority 2022, published 2025).
Substitutions are numbered along the chain they refer to. Names may count otherwise.

B1: Hu1B5-H5/Hu1B5-L5 (antibody, human IgG1, V domains shown)
VH: EVQLVQSGAEVKKPGASVKVSCKTSGFTFTRFWMNWVRQAPGQGLEWIGRIDPYDSETQYAHKFWDRATLTVDKSSSTVYMELSSLRSEDTAVYYCGRSLYGKGDYWGQGTTVTVSS
VL: DIVMTQSPDSLAVSLGERATINCRSSQSIVHSNGNTYLEWYQQKPGQPPKLLIYKVSNRFSGVPDRFSGSGSGTDFTLTISSLQAEDVAVYYCFQGSHVPLTFGGGTKVEIK
notes: Human IgG1 FES (L234F, L235E, P331S) and human Ig kappa constant domains
B2: Hu1B5-H6/Hu1B5-L5 (antibody, human IgG1, V domains shown)
VH: EVQLVQSGAEVKKPGESLRISCKTSGFTFTRFWMNWVRQMPGKGLEWIGRIDPYDSETQYNHKFWDHATLSVDKSSSTVYLQWSSLKASDTAMYYCGRSLYGKGDYWGQGTTVTVSS
VL: B1 VL
notes: as for B1
B3: Hu1B5-H3/Hu1B5-L2 (antibody, human IgG1, V domains shown)
VH: B1 VH with A61N, K74T
VL: DVVMTQSPLSLPVTLGQPASISCRSSQSIVHSNGNTYLEWYQQRPGQSPRRLIYKVSNRFSGVPDRFSGSGSGTDFTLKISRVEAEDVGVYYCFQGSHVPLTFGGGTKVEIK
notes: as for B1
B4: Hu1B5-H5/Hu1B5-L2 (antibody, human IgG1, V domains shown)
VH: B1 VH
VL: B3 VL
notes: as for B1
B5: Hu1B5-H2/Hu1B5-L2 (antibody, human IgG1, V domains shown)
VH: B1 VH with I48M, A61N, A68V, L70M, K74T, S76T
VL: B3 VL
notes: as for B1
B6: Hu1B5-H4/Hu1B5-L2 (antibody, human IgG1, V domains shown)
VH: B1 VH with A61N
VL: B3 VL
notes: as for B1
B7: Hu1B5-H6/Hu1B5-L2 (antibody, human IgG1, V domains shown)
VH: B2 VH
VL: B3 VL
notes: as for B1
B8: Hu1B5-H1/Hu1B5-L3 (antibody, human IgG1, V domains shown)
VH: B1 VH with E1Q, T24A, I48M, A61N, A68V, L70M, V72R, K74T, S76T
VL: B3 VL with R51L
notes: as for B1
B9: Hu1B5-H6/Hu1B5-L4 (antibody, human IgG1, V domains shown)
VH: B2 VH
VL: B3 VL with L15P, Q17E, Q42L, R44K, R50Q, R51L
notes: as for B1
B10: Hu1B5-H4/Hu1B5-L3 (antibody, human IgG1, V domains shown)
VH: B1 VH with A61N
VL: B3 VL with R51L
notes: as for B1
B11: Hu1B5-H2/Hu1B5-L3 (antibody, human IgG1, V domains shown)
VH: B1 VH with I48M, A61N, A68V, L70M, K74T, S76T
VL: B3 VL with R51L
notes: as for B1
B12: Hu1B5-H6/Hu1B5-L3 (antibody, human IgG1, V domains shown)
VH: B2 VH
VL: B3 VL with R51L
notes: as for B1
B13: Hu1B5-H2.1/Hu1B5-L3 (antibody, human IgG1, V domains shown)
VH: B1 VH with A61N, A68V, L70M, K74T, S76T
VL: B3 VL with R51L
notes: as for B1
B14: Hu1B5-H2.1/Hu1B5-L2 (antibody, human IgG1, V domains shown)
VH: B1 VH with A61N, A68V, L70M, K74T, S76T
VL: B3 VL
notes: as for B1
B15: Hu1B5-H3/Hu1B5-L3 (antibody, human IgG1, V domains shown)
VH: B1 VH with A61N, K74T
VL: B3 VL with R51L
notes: as for B1
B16: Hu1B5-H5/Hu1B5-L3 (antibody, human IgG1, V domains shown)
VH: B1 VH
VL: B3 VL with R51L
notes: as for B1
B17: Hu3F6-H2/Hu3F6-L8 (antibody, human IgG1, V domains shown)
VH: EVQLVQSGAEVKKPGASVKVSCKTSGFAFTSYWMNWVRQAPGQGLEWMGRIDPSDSEAHYHHKFWGRVTMTVDTSTSTVYMELSSLRSEDTAVYYCLRSLYGKGDYWGHGTTVTVSS
VL: B3 VL with L15P, Q17E, I29L, S32R, Q42L, R44K, R50Q, R51L, F94Y
notes: Human IgG1 FES (L234F, L235E, P331S) and human Ig kappa constant domains; also called Hu3F6 VH2/VL8
B18: Hu3F6-H2/Hu3F6-L4 (antibody, human IgG1, V domains shown)
VH: B17 VH
VL: DIVMTQTPLSLSVTPGQPASISCRSSQSLVHRNGNTYLEWYLQKPGQSPQLLIYKVSNRFSGVPDRFSGSGSGTDFTLKISRVEAEDVGVYYCYQGSHVPLTFGGGTKVEIK
notes: Human IgG1 FES (L234F, L235E, P331S) and human Ig kappa constant domains; also called Hu3F6 VH2/VL4
B19: Hu3F6-H2/Hu3F6-L5 (antibody, human IgG1, V domains shown)
VH: B17 VH
VL: B18 VL with I2V
notes: Human IgG1 FES (L234F, L235E, P331S) and human Ig kappa constant domains; also called Hu3F6 VH2/VL5
B20: Hu3F6-H2/Hu3F6-L3 (antibody, human IgG1, V domains shown)
VH: B17 VH
VL: B3 VL with I29L, S32R, R51L, F94Y
notes: Human IgG1 FES (L234F, L235E, P331S) and human Ig kappa constant domains; also called Hu3F6 VH2/VL3
B21: Hu3F6-H3/Hu3F6-L8 (antibody, human IgG1, V domains shown)
VH: B17 VH with M48I, V68A, M70L, T76S
VL: B18 VL with I2V, T7S, S12P, Q17E
notes: Human IgG1 FES (L234F, L235E, P331S) and human Ig kappa constant domains; also called Hu3F6 VH3/VL8
B22: Hu3F8-H6/Hu3F8-L2 (antibody, human IgG1, V domains shown)
VH: B2 VH with T24A, F32Y, Y54S, Q59H, D66G, G97L
VL: B3 VL with F94Y
notes: as for B1
B23: Hu3F8-H2/Hu3F8-L4 (antibody, human IgG1, V domains shown)
VH: B17 VH with T24A, A28T, S31R, A58T, H61N, H109Q
VL: B18 VL with T7S, S12P, Q17E, L29I, R32S
notes: as for B1
B24: Hu3F8-H1/Hu3F8-L2 (antibody, human IgG1, V domains shown)
VH: B17 VH with E1Q, T24A, A28T, S31R, A58T, H61N, V72R, H109Q
VL: B3 VL with F94Y
notes: as for B1
B25: Hu3F8-H1/Hu3F8-L4 (antibody, human IgG1, V domains shown)
VH: B17 VH with E1Q, T24A, A28T, S31R, A58T, H61N, V72R, H109Q
VL: B18 VL with T7S, S12P, Q17E, L29I, R32S
notes: as for B1
B26: Hu3F8-H1/Hu3F8-L1 (antibody, human IgG1, V domains shown)
VH: B17 VH with E1Q, T24A, A28T, S31R, A58T, H61N, V72R, H109Q
VL: B3 VL with Y41F, F94Y
notes: as for B1
B27: Hu3F8-H2/Hu3F8-L1 (antibody, human IgG1, V domains shown)
VH: B17 VH with T24A, A28T, S31R, A58T, H61N, H109Q
VL: B3 VL with Y41F, F94Y
notes: as for B1
B28: Hu3F8-H5.1/Hu3F8-L3 (antibody, human IgG1, V domains shown)
VH: B1 VH with T24A, F32Y, Y54S, Q59H, D66G, S76T, G97L
VL: B3 VL with R51L, F94Y
notes: Human IgG1 FES (L234F, L235E, P331S) and human Ig kappa constant domains; also called Hu3F8 VH5.1/VL3
B29: Hu3F8-H5.1/Hu3F8-L5 (antibody, human IgG1, V domains shown)
VH: B1 VH with T24A, F32Y, Y54S, Q59H, D66G, S76T, G97L
VL: B18 VL with I2V, T7S, S12P, Q17E, L29I, R32S
notes: Human IgG1 FES (L234F, L235E, P331S) and human Ig kappa constant domains; also called Hu3F8 VH5.1/VL5

target: T1, human adenosine A2A receptor (A2aR) (human, UniProt P29274 1-412); assay: flow cytometry, HEK293-hA2aR cells, supernatant 1 ug/ml
T1 construct: Assays used HEK293 cells stably overexpressing human A2aR (BPS Bioscience 79381), human A2aR-expressing CHO cells, or endogenous A2aR on human PBMC; also called human A2aR; hA2aR
T1 sequence (P29274 whole entry): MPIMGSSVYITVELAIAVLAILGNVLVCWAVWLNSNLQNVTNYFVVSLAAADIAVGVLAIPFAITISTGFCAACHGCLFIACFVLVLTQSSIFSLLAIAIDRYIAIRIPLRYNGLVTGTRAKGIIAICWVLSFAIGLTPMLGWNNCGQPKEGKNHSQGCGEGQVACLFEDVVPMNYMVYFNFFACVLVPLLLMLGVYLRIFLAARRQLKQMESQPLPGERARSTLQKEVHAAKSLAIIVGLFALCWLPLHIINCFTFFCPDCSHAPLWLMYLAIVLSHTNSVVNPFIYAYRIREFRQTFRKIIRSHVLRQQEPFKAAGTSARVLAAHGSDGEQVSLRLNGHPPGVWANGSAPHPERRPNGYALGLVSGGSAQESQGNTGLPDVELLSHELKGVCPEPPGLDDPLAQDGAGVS

| MFI [MFI] | Binder |
| --- | --- |
| 823 | B1 |
| 702 | B2 |
| 231 | B3 |
| 283 | B4 |
| 243 | B5 |
| 263 | B6 |
| 359 | B7 |
| 1840 | B8 |
| 1910 | B9 |
| 1860 | B10 |
| 1870 | B11 |
| 1910 | B12 |
| 1860 | B13 |
| 225 | B14 |
| 1850 | B15 |
| 1950 | B16 |

target: T1, human adenosine A2A receptor (A2aR); assay: as above; remark: another data set of the same source

| MFI [MFI] | Binder |
| --- | --- |
| 1710 | B17 |
| 1590 | B18 |
| 1790 | B19 |
| 1830 | B20 |
| 1830 | B21 |

target: T1, human adenosine A2A receptor (A2aR); assay: as above; remark: another data set of the same source

| MFI [MFI] | Binder |
| --- | --- |
| 285 | B22 |
| 1780 | B23 |
| 10 | B24 |
| 1750 | B25 |
| 9 | B26 |
| 16 | B27 |

target: T1, human adenosine A2A receptor (A2aR); assay: flow cytometry titration, HEK293-hA2aR cells, purified antibody

| EC50 [nM] | Binder |
| --- | --- |
| 0.76 | B17 |
| 0.68 | B18 |
| 0.53 | B19 |
| 0.65 | B20 |
| 0.62 | B28 |
| 0.76 | B21 |
| 0.69 | B29 |
